Laboratory results: article PMC5093408
One block for each substance: values may come before it.

Legend:
[1] = molecular target: HUSpm Asn92Lys mutant (Spiroplasma melliferum KC3); assay: SEC; size-exclusion chromatography of the purified point mutants; conditions not given
[2] = molecular target: HUSpm Lys35Thr mutant (Spiroplasma melliferum KC3); assay: as above
[3] = molecular target: HUSpm Phe14Ala mutant (Spiroplasma melliferum KC3); assay: as above
[4] = molecular target: HUSpm Phe29Ala mutant (Spiroplasma melliferum KC3); assay: as above
[5] = molecular target: HUSpm Val17Thr mutant (Spiroplasma melliferum KC3); assay: as above
[6] = molecular target: histone-like HU protein from Spiroplasma melliferum KC3 (Spiroplasma melliferum KC3); assay: crystal structure; hanging-drop vapour diffusion at 4 °C; protein 14 mg/ml in 20 mM Tris HCl pH 8.0, 200 mM NaCl, 5% glycerol; reservoir 0.1 M Tris HCl pH 8.0, 35% v/v PEG 400, 5% glycerol; one monomer per asymmetric unit, dimer by a crystallographic twofold axis; 1.4 Å

Substance: HUSpm Asn92Lys mutant (natural protein)
stoichiometry N [1]: 2

Substance: HUSpm Lys35Thr mutant (natural protein)
stoichiometry N [2]: 2

Substance: HUSpm Phe14Ala mutant (natural protein)
stoichiometry N [3]: 2

Substance: HUSpm Phe29Ala mutant (natural protein)
stoichiometry N [4]: 2

Substance: HUSpm Val17Thr mutant (natural protein)
stoichiometry N [5]: 2

stoichiometry N [6]: 2
Substance: histone-like HU protein from Spiroplasma melliferum KC3 (natural protein)
